Experimental findings from article PMC11857287 are described below.

Substrate in the data set: Nc1ncnc2c1ncn2[C@@H]1O[C@H](COP(=O)(O)OP(=O)(O)OP(=O)(O)OP(=O)(O)OC[C@H]2O[C@@H](n3cnc4c(N)ncnc43)[C@H](O)[C@@H]2O)[C@@H](O)[C@H]1O
Nature of the data set: fluorescent ADP assay, Lineweaver-Burk. Format: biochemical, Streptococcus pyogenes. The following applies: Mg2+-dependent, heading states optimal conditions (optimum pH 7.0, 45 °C), 0.1 mg/mL enzyme. An excerpt:
fluorescent ADP assay, Lineweaver-Burk on Sp-yqeK

B1: Sp-yqeK (Streptococcus pyogenes) (protein)
chain: MTYEDYLPYSRTELLAKIAEQMSPKRFKHVLGVEKAALSLAECYGCNPDKAGLAALLHDYAKECPDQVFLDLIDKYQLSPELAKWNNNVWHGMVGIYKIQEDLGLKDKDILRAIEIHTVGAAEMTLLDKVLYVADYIEEGRIFPLVDDARKIAKLDLNQAVAYETVNTVAYLASKAQPIFPQTLDTYNAFCSYLKEY
notes: pET28b (Nde I/Xho I), E. coli BL21(DE3), Ni-NTA purified; about 23 kDa; dimer in the asymmetric unit
B1: the Km (commonly the concentration of substrate that gives half-maximal velocity) stood at 216.4 ± 21.65 µM.
